pKd: −log10 of the molar value.
Experiments:
Experiment in all cases: filter binding
[1] = test system: TrmB R155A (Escherichia coli); conditions: max. about 30% bound, none (in vitro transcribed), becomes m7G46 during incubation with SAM, TAKEM4: 50 mM Tris-HCl pH 7.5, 70 mM NH4Cl, 30 mM KCl, 1 mM EDTA, 4 mM MgCl2, filter binding 20 nM tRNA, 10 min (temperature not given in the material) …
[2] = test system: TrmB WT (Escherichia coli); conditions: none (in vitro transcribed), becomes m7G46 during incubation with SAM, TAKEM4: 50 mM Tris-HCl pH 7.5, 70 mM NH4Cl, 30 mM KCl, 1 mM EDTA, 4 mM MgCl2, filter binding 20 nM tRNA, 10 min (temperature not given in the material) …
[3] = test system: TrmB R26A (Escherichia coli); conditions: none (in vitro transcribed), becomes m7G46 during incubation with SAM, TAKEM4: 50 mM Tris-HCl pH 7.5, 70 mM NH4Cl, 30 mM KCl, 1 mM EDTA, 4 mM MgCl2, filter binding 20 nM tRNA, 10 min (temperature not given in the material) …
[4] = test system: TrmB T217A (Escherichia coli); conditions: none (in vitro transcribed), becomes m7G46 during incubation with SAM, TAKEM4: 50 mM Tris-HCl pH 7.5, 70 mM NH4Cl, 30 mM KCl, 1 mM EDTA, 4 mM MgCl2, filter binding 20 nM tRNA, 10 min (temperature not given in the material) …
[5] = test system: TrmB D144A (Escherichia coli); conditions: none (in vitro transcribed), becomes m7G46 during incubation with SAM, TAKEM4: 50 mM Tris-HCl pH 7.5, 70 mM NH4Cl, 30 mM KCl, 1 mM EDTA, 4 mM MgCl2, filter binding 20 nM tRNA, 10 min (temperature not given in the material) …

[3H]tRNAPhe (unmodified transcript)
pKd ([1]; 50 uM SAM): 5.24 | pKd ([1]; no SAM): 5.00 | pKd ([2]; 50 uM SAM, tRNA becomes m7G46 product in 10 min): 5.68 | pKd ([2]; no SAM): 5.18 | pKd ([3]; 50 uM SAM): 5.29 | pKd ([3]; no SAM, max. about 20% bound): 5.19 | pKd ([4]; 50 uM SAM): 5.59 | pKd ([4]; no SAM): 5.27 | pKd ([5]; 50 uM SAM): 6.10 | pKd ([5]; no SAM): 5.60
